# Measured values reported in article PMC3469102, “^64Cu-NODAGA-c(RGDyK) Is a Promising New Angiogenesis PET Tracer: Correlation between Tumor Uptake and Integrin α V β 3 Expression in Human Neuroendocrine Tumor Xenografts” (International Journal of Molecular Imaging, 2012).
# Read-outs that look alike come from different tables or passages of the source.
# Assays:
# [1] = set-up: species or system mice; conditions: mouse, in vivo
# Experimental: Dose Assessment/EXponential Modeling software (OLINDA/EXM; Vanderbilt University, Nashville, TN, USA). To ensure a conservative estimate, the urinary elimination fraction was set to 75% with voiding intervals of 5 hours. The effective dose for both adult male and female were then calculated using OLINDA/EXM.
# [2] = Biodistribution (gamma counting) in mice with H727 xenografts; conditions: female, NMRI nude, mouse, in vivo, iv, 2 MBq, total radioactivity
# Experimental: (§1) Female NMRI (Naval Medical Research Institute) nude mice (6 weeks upon arrival) were acquired from Taconic Europe, Lille Skensved, Denmark. The mice were acclimated one week in the animal facilities before taken into experiments. […] […] Hypnorm^R (Janssen Pharmaceutica NV, Beerse, Belgium)/Dormicum^R (Roche, Basel, Switzerland). Tumors were then grown for 3-4 weeks (average tumor volume 210 mm^3). Animal care and experimental procedures were performed under the approval of the Danish Animal Welfare Council (2006/561-1124). Tumor bearing mice were anesthetized with 3% sevoflurane (Abbott Scandinavia AB, Solna, Sweden) mixed with 35% O2 in N2. […] Mice were sacrificed by neck drawing and tumors, organs (liver, kidneys, lung, spleen, heart, intestine, and muscle) and blood were collected, weighted, and radioactivity measured in a gamma counter (2480 Wizard^2, Perkin Elmer, MA, USA). Tumors were immediately placed in tubes containing RNAlater^R (Ambion Inc., TX, USA), stored overnight at 4°C, RNAlater^R then removed, and tumors stored at -80°C until total RNA extraction and further QPCR experiments were performed. […] (0.97 ± 0.03, 0.64 ± 0.04, 0.65 ± 0.04, and 0.62 ± 0.04) and decreasing further at 18 h p.i.
# [3] = test system: human neuroendocrine tumor xenografts (H727); experiment: as above; conditions: female, NMRI nude, mouse, in vivo, iv, 2 MBq, 18 h
# Experimental: as §1
# in vitro = in vitro ADME, nude mice; conditions: nude, mouse, plasma
# Experimental: The product (Figure 1) was used without further purification. HPLC analysis was performed with a Jupiter column, 4u Proteo 90A, 250 × 4.6 mm (Phenomenex, Torrance, CA, USA) and flow 1.5 mL/min. The HPLC mobile phase was solvent A, 0.1% trifluoroacetic acid in water, and solvent B, 0.1% trifluoroacetic acid in acetonitrile. Gradient: 0–2 min 15% B, 2–7 min 15–40% B, and 7–10 min 40–15% B. […] Plasma was mixed with equal amounts of acetonitrile after incubation. The resulting mixture was centrifugated and the supernatant was collected and filtered.
# in vivo = conditions: nude, mouse, iv, 1.6 MBq, total radioactivity
# Experimental: A longitudinal dynamic study was performed scanning a mouse at 1, 2, and 18 hours after intravenous injection of 1.6 MBq ^64Cu-NODAGA-c(RGDyK), allowing dynamic information of the tracer biodistribution in tumors as well as in the other organs of interest. The PET scans were performed using a small animal PET scanner (MicroPET Focus 120, Siemens Medical Solutions, Knoxville, TN, USA). The energy window for the emission PET scans was set to 350–650 keV and the time resolution was 6 ns. Scan time was 10 min.
# The acquired data for emission scan was stored in list-mode format and postprocessed to obtain 2 bytes 128 × 144 × 32 sinograms. Finally, the emission sinograms were reconstructed using MAP Algorithms and resulted into 4-byte 256 × 256 × 95 image sets with a zoom factor of 1.443 and a voxel size of 0.87 × 0.87 × 0.79 mm^3. Furthermore, the emission sinograms were corrected for dead time and decay time. Scatter and attenuation corrections were not applied to the emission data. The system was calibrated to provide activity concentrations as Bq/cc.
# The small animal CT scans of the mouse parallel with the PET scans were acquired using a small animal computed tomography (microCAT II, Siemens Medical Solutions). The acquisition time of each CT scan was 6.5 minutes generating 360 projections at 360° arc. The X-ray source settings were 75 kVp, 500 μA, and 270 ms for the voltage, the current, and the exposure time, respectively. The CT projections on the 3,000 × 2,970 CCD crystal were binned by 4 to increase sensitivity and reduce the dataset size. The projections were reconstructed by real-time reconstruction algorithm (the COBRA toolbox) using Shepp-Logan filter into 768 × 768 × 512 matrix with a voxel size of 0.092 × 0.092 × 0.092 mm^3.
# The fusion of the PET and CT images was performed manually using the ASIPro Toolbox (Siemens Medical Solutions). Also the analyses of PET images were performed in the ASIPro toolbox.
# The measurement of the activity uptake in the tumors and the organs were estimated by manually outlining on CT images. […] The 3D ROIs of the organs were then applied on the corresponding PET images. The results of these ROIs acquired the concentration of the tracer in the organs expressed in percentage of the injected dose per gram tissue (%ID/g).
# U87MG xenograft tumors = conditions: in vivo; cited from earlier work
# Experimental: The cyclic RGD peptides c(RGDfK) and […] have frequently been used for radiolabeling. c(RGDfK), cyclo [Arg-Gly-Asp-D-Phe-Lys] only differs from c(RGDyK), cyclo [Arg-Gly-Asp-D-Tyr-Lys], in one amino acid, D-Phenylalanine (D-Phe) instead of D-tyrosine (D-Tyr). D-Tyr is more hydrophilic than D-Phe and c(RGDyK) has therefore been reported as preferable due to faster renal excretion. In our study we found a faster decrease of radioactivity in kidneys, intestine, and liver from 1 to 18 h (2.2 to 0.5, 1.6 to 0.4, and 1.1 to 0.4%ID/g) than that reported for ^64Cu-NODAGA-c(RGDfK) in the sam ... || NODAGA-c(RGDy/fK) has been labeled with ^68Ga and NODAGA-c(RGDfK) also with ^64Cu. One paper compared ^68Ga- and ^64Cu-NODAGA-c(RGDfK) and found the highest tracer uptake using ^68Ga-NODAGA-c(RGDfK) compared to ^64Cu-NODAGA-c(RGDfK) (5.2 versus 3.8%ID/g, 1 h p.i. in highly angiogenic U87MG xenograft tumors) but also 3 times higher tumor-to-blood ratio [12]. We found similar T/B ratio (12.7) after 1 hour using ^64Cu-NODAGA-c(RGDyK) as they did with ^64Cu-NODAGA-c(RGDfK). The advantage of ^64Cu labeling is the possibility of delayed imaging up to 12 or 18 h post ...
molecule,measurement,setting,value
"N=C(N)NCCC[C@@H]1NC(=O)[C@H](CCCCNC(=O)CCC(C(=O)O)N2CCN(CC(=O)O)CCN(CC(=O)O)CC2)NC(=O)[C@@H](Cc2ccc(O)cc2)NC(=O)[C@H](CC(=O)O)NC(=O)CNC1=O (stereo partly drawn) [^64Cu-NODAGA-c(RGDyK), metal not drawn]","Residence time, Heart",[1],3.54E − 03 Bq ∗ h/Bq
same,"Residence time, Kidneys",[1],2.10E − 01 Bq ∗ h/Bq
same,"Residence time, Liver",[1],3.00E − 01 Bq ∗ h/Bq
same,"Residence time, Lungs",[1],1.29E − 02 Bq ∗ h/Bq
same,"Residence time, Small intestine",[1],2.79E − 01 Bq ∗ h/Bq
same,"Residence time, Spleen",[1],1.20E − 02 Bq ∗ h/Bq
same,tissue uptake at 1 h,[2]; %ID/g intestines,1.6 ± 0.16 %ID/g
same,tissue uptake at 2 h,[2]; %ID/g intestines,0.64 ± 0.04 %ID/g
same,tissue uptake at 18 h,[2]; %ID/g intestines,0.43 ± 0.04 %ID/g
same,tissue uptake at 1 h,[2]; %ID/g kidneys,2.2 ± 0.11 %ID/g
same,tissue uptake at 2 h,[2]; %ID/g kidneys,0.97 ± 0.03 %ID/g
same,tissue uptake at 18 h,[2]; %ID/g kidneys,0.51 ± 0.02 %ID/g
same,tissue uptake at 1 h,[2]; %ID/g liver,1.05 ± 0.17 %ID/g
same,tissue uptake at 2 h,[2]; %ID/g liver,0.65 ± 0.04 %ID/g
same,tissue uptake at 18 h,[2]; %ID/g liver,0.43 ± 0.02 %ID/g
same,tissue uptake at 1 h,[2]; %ID/g spleen,0.94 ± 0.11 %ID/g
same,tissue uptake at 2 h,[2]; %ID/g spleen,0.62 ± 0.04 %ID/g
same,tissue uptake at 18 h,[2]; %ID/g spleen,0.33 ± 0.02 %ID/g
same,tissue uptake at 2 h,[2]; Mean %ID/g for H727 tumors,0.68 ± 0.06 %ID/g
same,tissue uptake at 18 h,[2]; Mean %ID/g for H727 tumors,0.63 ± 0.04 %ID/g
same,tissue to tissue ratio at 1 h,[2]; Tumor-to-blood ratio,12.7
same,tissue to tissue ratio at 2 h,[2]; Tumor-to-blood ratio,37.2
same,tissue to tissue ratio at 18 h,[2]; Tumor-to-blood ratio,20.2
same,tissue to tissue ratio at 1 h,[2]; Tumor-to-intestine ratio,0.72 ± 0.08
same,tissue to tissue ratio at 2 h,[2]; Tumor-to-intestine ratio,1.06 ± 0.11
same,tissue to tissue ratio at 18 h,[2]; Tumor-to-intestine ratio,1.53 ± 0.11
same,tissue to tissue ratio at 1 h,[2]; Tumor-to-liver ratio,1.08 ± 0.11
same,tissue to tissue ratio at 2 h,[2]; Tumor-to-liver ratio,1.03 ± 0.11
same,tissue to tissue ratio at 18 h,[2]; Tumor-to-liver ratio,1.54 ± 0.1
same,tissue to tissue ratio,[2]; Tumor-to-muscle ratio,6.5 ± 0.7
same,tissue to tissue ratio at 1 h,[2]; Tumor-to-muscle ratio,4.99 ± 0.59
same,tissue to tissue ratio at 2 h,[2]; Tumor-to-muscle ratio,7.34 ± 1.16
same,tissue to tissue ratio at 18 h,[2]; Tumor-to-muscle ratio,7.09 ± 0.52
same,tissue to tissue ratio at 1 h,"[2]; 1 h p.i., biodistribution, H727 xenograft mice, read-out: Tumor-to-kidney ratio",0.51 ± 0.05
same,tissue uptake at 1 h,"[2]; 1 h p.i., i.v. 2.0 ± 0.7 MBq, gamma counter, mean ± SEM, read-out: Mean %ID/g for H727 tumors",1.15 ± 0.13 %ID/g
same,tissue to tissue ratio at 18 h,"[2]; 18 h p.i., biodistribution, H727 xenograft mice, read-out: Tumor-to-kidney ratio",1.2 ± 0.09
same,%ID/g intestines,[3],0.4 %ID/g
same,%ID/g kidneys,[3],0.5 %ID/g
same,%ID/g liver,[3],0.4 %ID/g
same,"remaining at 24 h, 20 MBq/mL",in vitro,88%
same,tissue to tissue ratio,in vivo,6.9 ± 0.8
same,tissue uptake at 1 h,in vivo,1.15 %ID/g
same,tissue uptake at 2 h,in vivo,0.99 %ID/g
same,tissue uptake at 18 h,in vivo,0.76 %ID/g
^68Ga-NODAGA-c(RGDfK) (head to tail),"tumor-to-blood ratio, times higher than ^64Cu-NODAGA-c(RGDfK)",U87MG xenograft tumors,3 times
